Data: article PMC9231623 (2022)

Molecular target: T1, SNX5 PX domain (UniProt Q9Y5X3 25-172)
T1 chain: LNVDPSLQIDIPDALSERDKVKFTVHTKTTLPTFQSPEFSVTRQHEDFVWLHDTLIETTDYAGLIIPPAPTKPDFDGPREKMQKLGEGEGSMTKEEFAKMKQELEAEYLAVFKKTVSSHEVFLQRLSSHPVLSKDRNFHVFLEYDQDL
Assay: ITC

B1: NRP1 peptide (residues 894 to 918 of the cytosolic tail) (peptide)
peptide: not shown
- Kd: 17.6 µM
